Test results reported in patent US20200031927A1 (Memorial Sloan Kettering, published 2020).

Legend:
[1] = target: T1, soluble KIR3DL1*002-Fc (human, UniProt P43629 22-338); assay: SPR (BIACORE T-100)
T1 construct: also called KIR3DL1 allele 002; Allele 002; not shown: Fc domain

[2] = target: T2, soluble KIR3DL1*001-Fc (human, UniProt P43629 22-340); assay: SPR (BIACORE T-100)
T2 construct: also called KIR3DL1 allele 001; KIR3DL1 allele-001 antigen; not shown: Fc domain

[3] = target: T3, soluble KIR3DL1*033-Fc (human, UniProt P43629 22-340); assay: SPR (BIACORE T-100)
T3 construct: also called KIR3DL1 allele 033; Allele 033; not shown: Fc domain
T3 sequence (P43629 other isoform, or with tags, fused parts or gaps): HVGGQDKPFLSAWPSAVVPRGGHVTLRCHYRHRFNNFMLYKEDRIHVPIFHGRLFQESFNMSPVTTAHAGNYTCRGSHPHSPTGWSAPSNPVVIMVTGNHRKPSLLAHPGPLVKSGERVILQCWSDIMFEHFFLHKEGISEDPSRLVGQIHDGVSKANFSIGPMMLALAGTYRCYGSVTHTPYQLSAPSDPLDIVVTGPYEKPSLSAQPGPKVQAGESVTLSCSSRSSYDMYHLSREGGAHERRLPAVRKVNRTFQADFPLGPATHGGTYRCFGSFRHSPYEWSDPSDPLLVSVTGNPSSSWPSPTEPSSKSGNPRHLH

[4] = target: T1, soluble KIR3DL1*002-Fc; assay: BLI (ForteBio QK), hIgG1
[5] = target: T4, soluble KIR3DL1*007/015-Fc (human, UniProt P43629 22-338); assay: BLI (ForteBio QK), hIgG1
T4 construct: also called KIR3DL1 allele 007/015; CD158e allele 007/015; not shown: Fc domain
T4 sequence (P43629 other isoform, or with tags, fused parts or gaps): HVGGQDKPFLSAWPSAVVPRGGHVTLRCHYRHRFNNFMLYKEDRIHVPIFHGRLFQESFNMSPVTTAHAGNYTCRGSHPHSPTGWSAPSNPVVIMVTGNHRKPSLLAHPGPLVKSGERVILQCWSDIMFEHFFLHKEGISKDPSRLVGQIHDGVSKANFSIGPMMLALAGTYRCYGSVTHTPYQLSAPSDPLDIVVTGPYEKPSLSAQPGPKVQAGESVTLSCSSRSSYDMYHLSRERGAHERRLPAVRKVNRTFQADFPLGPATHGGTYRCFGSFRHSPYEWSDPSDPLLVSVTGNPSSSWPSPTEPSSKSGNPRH

[6] = target: T2, soluble KIR3DL1*001-Fc; assay: BLI (ForteBio QK), hIgG1
[7] = target: T5, soluble KIR3DL1*020-Fc (human, UniProt P43629 22-339); assay: BLI (ForteBio QK), hIgG1
T5 construct: also called KIR3DL1 allele 020; CD158e allele 020; not shown: Fc domain
T5 sequence (P43629 other isoform, or with tags, fused parts or gaps): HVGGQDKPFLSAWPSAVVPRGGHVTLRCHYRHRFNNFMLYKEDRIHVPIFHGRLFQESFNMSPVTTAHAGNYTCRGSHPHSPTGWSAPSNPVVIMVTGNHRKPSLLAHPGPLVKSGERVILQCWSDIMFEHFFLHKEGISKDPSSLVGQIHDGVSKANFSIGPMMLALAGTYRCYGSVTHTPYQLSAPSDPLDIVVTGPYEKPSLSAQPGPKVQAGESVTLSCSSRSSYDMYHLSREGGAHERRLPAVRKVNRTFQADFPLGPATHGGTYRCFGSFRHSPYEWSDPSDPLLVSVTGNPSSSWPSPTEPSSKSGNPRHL

[8] = target: T3, soluble KIR3DL1*033-Fc; assay: BLI (ForteBio QK), hIgG1
[9] = target: T2, soluble KIR3DL1*001-Fc; assay: BLI (Forte-Bio), partial fit, IgG
[10] = target: T1, soluble KIR3DL1*002-Fc; assay: SPR (BIACORE T-100), kinetics
[11] = target: T1, soluble KIR3DL1*002-Fc; assay: SPR (BIACORE T-100), kinetics; Biacore T-100, allele 002
[12] = target: T2, soluble KIR3DL1*001-Fc; assay: BLI (ForteBio QK), hIgG1; ForteBio, hIgG1, allele 001 (Table 2)

Binder | Kd [1] | Kd [2] | Kd [3] | Kd [4] | Kd [5] | Kd [6] | Kd [7] | Kd [8] | Kd [9] | koff [9] | kon [9] | Kd [10] | koff [10] | kon [10] | Kd [11] | Kd [12]
ET160-61 (antibody, human IgG1, V domains shown, Tested as human IgG1 (hIgG1), lambda light chain) VH: QVQLVESGGGLVQPGRSLRLSCAASGFTFDDYAMHWVRQAPGKGLEWVSGISWNSGSIGYADSVKGRFTISRDNAKNSLYLQMNSLRAEDTAVYYCASSLRYFEWPIDYWGQGTLVTVSS VL: NFMLTQPLSVSESPGKTVTISCTANGGSLASKYVQWFQQRPGSSPTTVIYDDNLRPSGVPDRFSGSIDTSSNSAALTISGLKTEDEADYYCQSYDNSSVVFGGGTKLTVLG | 27.7 nM | 45.9 nM | 10.8 nM | 21.7 nM | 4.1 nM | 15.1 nM | 19.4 nM | 22.7 nM | 15.1 nM | 0.00193 s⁻¹ | 127000 M⁻¹ s⁻¹ | 27.7 nM | 0.00232 s⁻¹ | 84000 M⁻¹ s⁻¹ |  | 
ET160-74 (antibody, human IgG1, V domains shown, Tested as human IgG1 (hIgG1), lambda light chain) VH: QVQLVQSGAEVKKPGSSVKVSCKASGGTFSSYAISWVRQAPGQGLEWMGWMNPNSGNTGYAQKFQGRVTMTRNTSISTAYMELSSLRSEDTAVYYCARYSFHLDGWGQGTLVTVSS VL: QSVLTQPPSVSAAPGQKVTISCSGSSSNVGNNYVSWYQQVPGTAPKLLIYDNNRRPSGIPDRFSGSKSGTSATLGITGLQTGDEADYYCGTWDNSLRVELFGGGTKVTVLG | 108 nM | 11.9 nM | 62.2 nM | 8.6 nM | 10.1 nM | 13.3 nM | 11.2 nM | 11 nM | 13.3 nM | 0.00161 s⁻¹ | 122000 M⁻¹ s⁻¹ | 108 nM | 0.0112 s⁻¹ | 103000 M⁻¹ s⁻¹ |  | 
ET160-72 (antibody, human IgG1, V domains shown, Tested as human IgG1 (hIgG1), lambda light chain) VH: QVQLVQSGGGVVRSGGSLRLTCAASGFTFGDYGMSWVRQAPGKGLEWVSGINWNGGGTGYADSVKGRFTISRDNAKDSLYLQMNSLRAEDTALYYCARVWGCGSTTCYEGADDAFDIWGQGTMVTVSS VL: LPVLTQPPSISGAPRQRVTISCSGARSNIGNNAVNWYQQVPGEAPKLLIFYDDQQPSGISGRFSGSKSGTSASLAISGLQSEDEADYYCAAWDDSLNGWVFGGGTKLTVLG | 316 nM | 182 nM | 138 nM | 11.6 nM | 11.6 nM | 15.8 nM | 11.4 nM | 15.4 nM | 15.8 nM | 0.00212 s⁻¹ | 134000 M⁻¹ s⁻¹ | 316 nM | 0.0159 s⁻¹ | 50500 M⁻¹ s⁻¹ |  | 
ET160-73 (antibody, human IgG1, V domains shown, Tested as human IgG1 (hIgG1), kappa light chain) VH: QVQLVQSGAEVKKPGESLKISCKGSGYSFTSYWIGWVRQMPGKGLEWMGIIYPGDSDTRYSPSFQGQVTISADKSISTAYLQWSSLKASDTAMYYCARGREQLWLDGMDVWGQGTTVTVSS VL: DVVMTQSPLSLPVTLGQPASISCRSTQSLVHSDGNTYLNWFQQRPGQSPRRLIYGVSNRDFGVPDRFSASGSGTDFTLKINRVEAEDVGVYYCMQGTHWPLTFGQGTKVEIKR | 124 nM | 136 nM | 55.6 nM | 16.3 nM | 16.1 nM | 21.2 nM | 15.7 nM | 14.4 nM | 21.2 nM | 0.00302 s⁻¹ | 143000 M⁻¹ s⁻¹ | 124 nM | 0.00481 s⁻¹ | 38900 M⁻¹ s⁻¹ |  | 
ET160-77 (antibody, human IgG1, V domains shown, Tested as human IgG1 (hIgG1), lambda light chain) VH: EVQLVETGGGLVKPGGSLRLSCAASGFTFSDYYMSWIRQAPGKGLEWVSYISSSSSYTNYADSVKGRFTISRDNAKNSLYLQMNSLRAEDTAVYYCAREGIAAADAFDIWGQGTMVTVSS VL: SYELTQPPSVSVAPGQAATITCAGDNIESKSVNWYQQKPGQAPVLVVYDDTVRPSGIPERFSGSNSGNPATLTISRSEAGDEADYYCQVWDNRRDHVVFGGGTKVTVLG | 197 nM | 53.1 nM | 48.3 nM | 10.9 nM | 11.4 nM | 13.9 nM | 10.5 nM | 13.1 nM | 13.9 nM | 0.00222 s⁻¹ | 160000 M⁻¹ s⁻¹ | 197 nM | 0.00987 s⁻¹ | 50000 M⁻¹ s⁻¹ |  | 
ET160-42 (antibody, human IgG1, V domains shown, Tested as human IgG1 (hIgG1), lambda light chain; Clone from a human scFv phage display library) VH: not shown VL: QSALTQPASVSGSPGQSITISCTGTSSDVGGYNYVSWYQQHPGKAPKLMIYDVSNRPSGVSNRFSGSKSGNTASLTISGLQAEDEADYYCSSYTSSNTLVFGTGTKVTVLG | 93.5 nM | 89.5 nM | 75.2 nM | 8.5 nM | 8.4 nM |  | 10.1 nM | 10.3 nM |  | 0.00221 s⁻¹ | 172000 M⁻¹ s⁻¹ | 93.5 nM | 0.0171 s⁻¹ | 183000 M⁻¹ s⁻¹ | 93.5 nM | 12.9 nM
